Data as given in publication PMC9057599.

Biological target: histone H4 N-terminus, 1-30 (UniProt P62805)
Test: biotin-peptide pulldown, blot
Conditions: reference: wild type ZMYND8; sites S486,S490

- binding against the reference: stronger
Substance: ZMYND8 (from UniProt Q9ULU4) 2SA (S486A/S490A)
